From patent publication US20230132604A1 (KEYMED BIOSCIENCES, published 2023) come the findings set out here.

Test [1] has as its target T1, recombinant human CD38 extracellular region protein (Val 43-Ile 300) with N-terminal 6×his tag (human, UniProt P28907 43-300).
T1 construct: range 43-300; Expressed in HEK293.6E cells and purified on a nickel chelate column; also called human CD38 recombinant protein; human CD38 protein
T1 sequence: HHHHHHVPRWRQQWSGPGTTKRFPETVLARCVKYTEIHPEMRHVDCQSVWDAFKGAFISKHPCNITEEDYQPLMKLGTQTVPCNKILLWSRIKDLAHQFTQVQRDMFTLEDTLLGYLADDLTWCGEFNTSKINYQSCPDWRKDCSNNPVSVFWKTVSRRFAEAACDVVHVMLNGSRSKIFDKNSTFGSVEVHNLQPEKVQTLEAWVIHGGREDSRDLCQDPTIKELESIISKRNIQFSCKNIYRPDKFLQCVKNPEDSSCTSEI
As to the kind of experiment: ELISA, plate coated with human CD38 protein, detection with HRP goat anti-human IgG Fc, OD450.

The target of test [2] is T1, recombinant human CD38 extracellular …. Put plainly: ELISA, plate coated with human CD38 protein, anti-human IgG Fc-HRP detection. Here is the method:
A 96-well plate was coated with human CD38 protein and incubated overnight at 4° C. The solution in wells were then discarded, washed 3 times with wash buffer, and blocked by the addition of 2% milk in PBS for 60 minutes. After washing 3 times with washing buffer, 100 μL of antibodies at different dilutions were added to each well, and the mixture was incubated at 37° C. for 1 hour; after washing 3 times with washing buffer, HPR-labeled goat anti-human IgG Fc was diluted at 1:5000 with 0.5% BSA, and the mixture was incubated at room temperature for 1 hour; after washing 3 times with washing buffer, 100 μL of TMB substrate solution was added for color development; after reaction at 37° C. for 10 minutes, the reaction was terminated with 50 μL of 2M sulfuric acid solution and the absorbance was read at 450 nm.
On the technique in general: An ELISA detects its analyte on a solid surface through an enzyme-linked reagent.

The target in test [3] is T2, human CD38 expressed on tumor cells (Daudi, NALM-6, Ramos.2G6.4C10, TALL-1) (human, UniProt P28907 1-300).
T2 construct: whole, on cells; Endogenous CD38 on human tumor cell lines; also called CD38 molecules expressed on Daudi; CD38 on Daudi cells
T2 sequence (looked up): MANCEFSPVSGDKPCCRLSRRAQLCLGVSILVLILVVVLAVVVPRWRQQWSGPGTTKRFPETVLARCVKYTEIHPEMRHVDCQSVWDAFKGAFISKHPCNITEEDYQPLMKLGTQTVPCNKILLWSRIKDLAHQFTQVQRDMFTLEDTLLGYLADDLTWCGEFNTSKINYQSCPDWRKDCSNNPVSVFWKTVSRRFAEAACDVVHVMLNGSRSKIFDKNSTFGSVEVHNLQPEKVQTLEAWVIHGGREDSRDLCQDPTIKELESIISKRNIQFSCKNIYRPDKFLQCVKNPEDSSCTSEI
As to the kind of experiment: flow cytometry (FACS) on Ramos.2G6.4C10 cells. Here is the method: (§1) Different cells in logarithmic phase were blocked with 3% BSA for 30 minutes, and then plated into a U-shaped 96-well plate at 5×10⁴ cells/100 μL; centrifugation was conducted at 1100 rpm for 3 minutes, the supernatant was discarded, the cells were patted and loosed gently, 50 μL of serially diluted antibody (diluted 3-fold in 5 series, with an initial concentration of 30 μg/mL) was added to each well, and the mixture was incubated at 4° C. for 1 hour. After the incubation, 180 μL 0.5% BSA was added to each well, wash 3 times, 30 μL/well of secondary antibody Alexa Fluro 647 anti-human IgG (Jackson ImmunoResearch, Cat: 109-606-170) was added, and the mixture was incubated at 4° C. for 45 minutes. After the incubation, each well was washed 3 times with 180 μL 0.5% BSA, and finally resuspended in 50 μL PBS each well for iQue (Intellicyt, USA) assay.

Test [4] deals with T1, recombinant human CD38 extracellular …. Put plainly: SPR (Biacore), antibody captured on protein A chip, human CD38 recombinant protein as analyte, Langmuir 1:1 fit. In general terms: Surface plasmon resonance follows binding to a sensor surface in real time, without labels.
In test [5] the target is T2, human CD38 expressed on tumor cells …. Put plainly: flow cytometry (FACS) on TALL-1 cells. Here is the method:
as §1
(A flow cytometer gives signals particle by particle.)

Test [6] has the same target. As to the kind of experiment: flow cytometry (FACS) on Daudi cells. Here is the method: as §1
Test [7] has the same target. As to the kind of experiment: flow cytometry (FACS) on NALM-6 cells. The method, then: as §1

Residue numbers refer to the chain shown, from its start.

B1: chimeric anti-human CD38 antibody 48H1-B11 (antibody, V domains shown)
VH: EVQLKQSGPGLMQPSQSLSITCTVSGFSLTSYGIHWLRQSPGKGLEWLGVIWRGGSTDYNAAFMSRLSITKDNSKSQVFFKMNSLQGDDTAIYYCAKGKVTTGFYFDFWGQGTTLTVSS
VL: DIQMTQSSSSFSVSLGDRVTITCKASEDIYNRLVWYQQKPGNAPGLLISGVTSLETGVPSRFSGSGSGKDYTLTITSLQTEDVATYYCQQYWSTPYTFGGGTKLEIK
notes: also called chimeric antibody 48H1-B11; mAb48H1-B11 (murine parent)
In the case of B1, the “EC50 (read off the curve)” value in test [1] was roughly 0.1 nM.

B2: humanized CD38 antibody Ab031 (h48H1-VHv7 / h48H1-VKv7) (antibody, V domains shown)
VH: QVQLQESGPGLVKPSETLSLTCTVSGFSLTSYGIHWIRQPPGKGLEWIGVIWRGGSTDYNPSLKSRVTISKDNSKSQVSLKLSSVTAADTAVYYCAKGKVTTGFYFDFWGQGTLVTVSS
VL: EIVMTQSPPTLSLSPGERVTLSCRASEDIYNRLVWYQQKPGQAPRLLISGVTSLETSIPARFSGSGSGTDYTLTISSLQPEDFAVYYCQQYWSTPYTFGQGTKVEIK
notes: also called CM313-1
As for B2, the half-maximal effective concentration (EC50) in test [2] is 0.51 nM; in test [3] it was 0.42 nM; in test [5], 0.41 nM; in test [6], 0.44 nM; in test [7], 0.37 nM. Also, the Kd in test [4] was 0.278 nM. For the same molecule, the koff in test [4] worked out at 0.000556 s⁻¹. Besides, in test [4], the association rate constant (kon) turned out to be 2e+06 M⁻¹ s⁻¹.

B3: humanized CD38 antibody Ab033 (h48H1-VHv8 / h48H1-VKv7) (antibody, V domains shown)
VH: B2 VH with I37L, N73T
VL: B2 VL
notes: also called CM313-2
On to B3, for which the EC50 in test [2] amounted to 4.24 nM; in test [3] it was 0.58 nM; in test [5], 0.34 nM; in test [6] it was 0.54 nM; in test [7], 0.49 nM. Further, the Kd in test [4] turned out to be 1.43 nM. For the same molecule, the off-rate constant (koff) in test [4] came to 0.00532 s⁻¹. Also, the on-rate (kon) in test [4] came to 3.71e+06 M⁻¹ s⁻¹.

Usually EC50 (read off the curve) stands for the concentration giving half of the maximal effect. The EC50 is the concentration that produces a half-maximal response. As usually defined, the Kd is a measure of binding affinity in units of concentration. The koff is the rate constant with which the complex falls apart. Usually kon stands for the second-order rate constant of association.
